# Data reported in the RNAGym collection of RNA variant scans (doi:10.1073/pnas.2313332121).
# This sample holds only a part of the variants without activity.
# B1: TPR 5TU (parent)
# chain: GGAUCUUCUCGAUCUAACAAAAAAGACAAAUCUGCCACAAAGCUUGAGAGCAUCUUCGGAUGCAGAGGCGGCAGCCUUCGGUGGCGCGAUAGCGCCAACGUUCUCAACUAUGACACGCAAAACGCGUGCUCCGUUGAAUGGAGUUUAUCAUG
# Variants of: B1
# Test: polymerase ribozyme fitness, log enrichment relative to wild type (log ratio); higher = more active; in vitro selection for triplet polymerase activity
# How it was run: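 After PCR construction and transcription, each subunit's mutant library from a heterodimeric triplet polymerase ribozyme was annealed with a biotinylated primer, the partner subunit and triplets. Incubation was frozen, at −7 °C, and extended constructs were gel-excised, bound to streptavidin beads and amplified by RT-PCR, in one selection round done in triplicate. Fitness is the logarithm of a genotype's enrichment divided by that of the wild type, from inverse-variance-weighted replicate averages of Illumina-sequenced inputs and outputs. The base of the logarithm is 2, and genotypes needed ≥10 input reads and ≥1 read per output.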
row,Variant,polymerase ribozyme fitness (log ratio)
1,A12C C14A A30U A39C G58C G83C G124U,≤ -4.2
2,A12G G70A C118U,-3.56
3,C10G A89G C103U U134G G141A U151A,≤ -4.2
4,C10G C85G G92A C125G,≤ -4.2
5,A12G A89G,-1.16
6,C10G C32A G58U G59U U130C,≤ -4.2
7,G11C A12G A41U C76A G83A C103G C114A,≤ -4.2
8,C10U U55G,-3.19
9,G11A U55A A73G,-1.2
10,C10G U56A A89U C99U G112C U145G,≤ -4.2
11,A12G A19C A40G U45C G92A G141A,≤ -4.2
12,A12G A16U G50A G83C C85A U90C,≤ -4.2
13,G11A U56A C99U G143C,-3.7
14,A12G G70C A113C U144C A147C,≤ -4.2
15,G11U A19C G68A G74A C87A C149G,≤ -4.2
16,G11A C96G A120C U146C,-1.48
17,A12G U55A C76A C93A A120G,-3.73
18,A12G C35U G83A,-0.598
19,C10U A60G A64U C85U C129A,≤ -4.2
20,G11U G50U G68A G84U C114U A115U G136A,≤ -4.2
21,C10G U146G,-4.19
22,A12C A39U G88C A115C G126A,≤ -4.2
23,G11C C35G A52U C63A G94A C131U,≤ -4.2
24,G11U A39U C57U G70A U101G,≤ -4.2

row,Variant,polymerase ribozyme fitness (log ratio)
1,C10G A28C C51U C87U G88A A91C G117C G124U U130G,≤ -4.2
2,A12G A37C C87U G92A A119U G136A,-0.359
3,A12G C27A C76A A147C U148A,≤ -4.2
4,C10U,-2.16
5,A12G A91U C105G A106U,-4.11
6,G11C A23U G50C C54G C57U A89G C116A G124C U139A,≤ -4.2
7,G11U A23U C32U C57U G58A U77C C93G C96U A97U G100U A110U G143C,≤ -4.2
8,A12G A21G C43U U55A G83U U144G,≤ -4.2
9,A12G G48A C54U C85G G117U,-2.26
10,C10U A39C C57A G59C A66U G67U G81A C85G C105A U135C G140C G143C,≤ -4.2
11,A12G C36A C69U C85G A89C A113U,≤ -4.2
12,G11U C93G,-3.88
13,A12C C93A,-2.68
14,C10G A37C G50A C95U C99A G143C,≤ -4.2
15,C10G C18G U55C C57U U61A,-4.15
16,A12C A37G G46C C96G A110G C116U U135G,≤ -4.2
17,A12C U90G,≤ -4.2
18,C10G A52G U56A C96U G140U,≤ -4.2
19,G11A G94U A150U,-0.735
20,A12C A64U G68C G84U A106C U145G,≤ -4.2
21,A12C C35U A49C A64U C95U C123U,≤ -4.2
22,G11A U61A C85A A122C A150C,≤ -4.2
23,C10G C75U,-3.87
24,A12G U44A G46A A66C G86A C93A A97U A138G A142G,≤ -4.2

row,Variant,polymerase ribozyme fitness (log ratio)
1,G11A A12U C51G U55G G62C U90C C108G,≤ -4.2
2,G11C U33G C38U A47C A49C G92A A97G U111G C118U G133U,-4.17
3,G11A A21U G83U G117U,-2.13
4,G11A G50C C93U A97U G141U,≤ -4.2
5,C10U G25U C32A C76A G83U G88C C93G,≤ -4.2
6,C10G C54U U55A C79G C93U A98G C116G A122U,≤ -4.2
7,G11C A20G G34U A137U,≤ -4.2
8,A12C C57U C76G C96U,≤ -4.2
9,G11C U13A A64U G74C C85U C96G U102C,≤ -4.2
10,G11U A21U G74C G92U,≤ -4.2
11,A12G G42A G62A U101C C105G U134G,≤ -4.2
12,C10U A52U C85A,≤ -4.2
13,A12G C96U,-0.793
14,A12U A20G A52U G141A,-3.17
15,A12G A73U C96A U109A C116U,-2.66
16,G11U U53A C132U U146G,-3.51
17,C10U C93U,-4.06
18,G11A U55G G74C U77C A98U A115C,≤ -4.2
19,C10G G11C A12G G70U C85G U101C G128A,≤ -4.2
20,G11A C27A A73C G74A G81A A89U C93G G126U,≤ -4.2
21,G11U A28U C43U C87A C99G G126A,-4.16
22,A12G C14U A19G A21U A28G G65C G84C G124U G143C U145C,≤ -4.2
23,A12C A113G,-2.73
24,G11C C57G U82A G83U G141U,-2.65

row,Variant,polymerase ribozyme fitness (log ratio)
1,G11C C32U C69A A121G,-4.12
2,G11U C54U C72A U90G G92U U111G U148G,≤ -4.2
3,G11A A49C,≤ -4.2
4,G11U C18U G84U,-3.2
5,G11A C54G G94A,-2.96
6,G11C C38A G59A C125G,-2.58
7,C10G G68C G83U A107C,≤ -4.2
8,A12G A17U A49G A60G A91G,-2.9
9,A12C C99U C105G,≤ -4.2
10,A12C C38U G50C U53A U55G G71U G92U U148C,≤ -4.2
11,G11U A23U G68A U130G U135C,≤ -4.2
12,G11A A110G,-3.76
13,C10G U13G A16C U56A G92C C105A C114U,≤ -4.2
14,A12C G25U C51G C72G C118G,≤ -4.2
15,A12G C116G G126U,1.17
16,A12G A16C A119U A121G U135C U146A A150G,-4.12
17,C10U G80C G84U C87A C105A U151G,≤ -4.2
18,G11A C14U U61A G80C C85G C96U A98G C108A,≤ -4.2
19,G11A C14A A40G C79A C93A G124A,≤ -4.2
20,G11U A47C G50U C57G A64U C76G,≤ -4.2
21,G11C G50A U56A G83U C93A U127C U135C,≤ -4.2
22,C10G A30G C38A G94U C125G U144C,≤ -4.2
23,A12C C87U A115C,-1.97
24,A12C C76A A91U,≤ -4.2

row,Variant,polymerase ribozyme fitness (log ratio)
1,G11A G84A C85U G88A C99A C131G U139C,≤ -4.2
2,C10G C27A U82C G83A A91U,≤ -4.2
3,A12U A17C A22C A142C,-2.44
4,A12G C14A C38U C43A U56A C85U C103G,≤ -4.2
5,C10U U78A G86A A107G G124A G140A G141C,≤ -4.2
6,C10U C105A,-3.59
7,C10U A22C A60G C87U G88U,≤ -4.2
8,A12C G84A,-0.118
9,A12C C54U,-0.207
10,C10G C69G G83C,≤ -4.2
11,C10U C18G A19C A40U C87G G88U,≤ -4.2
12,A12G C54A C99U,-1.32
13,G11C C54U C85U A115G,-3.49
14,A12G U53A U56A U82G A91U G117C A142G,-4.16
15,G11A G48A A52C G83A C87U A119C G124C,≤ -4.2
16,G11U C14G G46A U55A C87U,≤ -4.2
17,G11A A23U A66C G92A C114U C125A,≤ -4.2
18,A12G A29G U55A C85U C96U C105U,≤ -4.2
19,C10U A40G G50U C79G C99U C108G G117A,≤ -4.2
20,A12C A113G A119U U145A,-3.25
21,A12G G83A G133C G143A U146G,-3.34
22,G11C A17G C32A C72U A113U G117U A122U U148G,≤ -4.2
23,C10U C38U A73G A89G A97G C116G A122U C129A,≤ -4.2
24,A12G C69A C96U A121C U127G A147U,-4.02

row,Variant,polymerase ribozyme fitness (log ratio)
1,G11U A40U G84A A110G,-3.56
2,G11C U53A C72G C79A U82A U90G A106C,≤ -4.2
3,G11U G42C A47C G74A C96G C105U G140A,≤ -4.2
4,G11U C38U G58C C96U A98G,-1.45
5,G11C C27U G92U,-2.73
6,C10U U53A C54U U55A C75G C105U G143U U145C U148A,≤ -4.2
7,G11U U13G G62U C69U G81A C87U,≤ -4.2
8,G11C C32G G34C G88C A106G C108A A110U C149G,≤ -4.2
9,G11A C27U A49G C96A C118U U145A,-4.19
10,C10G C85U,-3
11,C10G C18G A21C G25A G65A C79A U104G,≤ -4.2
12,A12G C54U G86U C105U G143A,-2.5
13,C10U A17G A23C A24C A26G U31G A39U U44A C54G C57G G86U A97U A142C,≤ -4.2
14,C10U C27G C54U C95G C96G A110G,≤ -4.2
15,C10G A89G,≤ -4.2
16,C10U A26U G42A A47U A89C C96U A107U G112C,≤ -4.2
17,A12G C93G A98G G141C,-2.52
18,C10G G84A,-3.26
19,G11A U82A,-1.4
20,G11A U55A U77G G83C A142U,≤ -4.2
21,C10G C38U G50A U90A U127C G128U U145A,≤ -4.2
22,C10G A64C C76A G92C U135A A138G U151G,≤ -4.2
23,A12U A17U C18U G34A A64G C87G,≤ -4.2
24,C10G A52U C72U G86U C93U C116G G124A U144C,≤ -4.2

row,Variant,polymerase ribozyme fitness (log ratio)
1,C10G G42U C63U C95A C123G,≤ -4.2
2,A12C G50A G59C G92U,-2.67
3,C10G A41G A115G,≤ -4.2
4,A12C C87A U130C,≤ -4.2
5,A12G U55C C57G C87G A121G U148A A150C,≤ -4.2
6,G11C C35U,-2.11
7,G11C C63U G83A A115U U135A U146C G152U,≤ -4.2
8,G11U A30U G65U G70C C85G A91U C93A A150U,≤ -4.2
9,G11U U104G,-1.58
10,C10G C95U,-3.16
11,G11U C35U C51U U55G G59U G68A G80A G83A,≤ -4.2
12,A12G U13G A121G,-2.27
13,C10G A52C G70U C85G G117U,≤ -4.2
14,A12C A20C A26G,≤ -4.2
15,A12G C63U G83C C95U U109A,-2.16
16,G11U G42A G50A C54A C95U G124A,≤ -4.2
17,G11C A41C C95A U146G,-3.34
18,A12G G84A,-0.68
19,G11C A30U C95A C108G U148A,≤ -4.2
20,C10G C14U G50C C54A C76G C105G,≤ -4.2
21,G11A A12C A23C G46A A73U G80C A97U U109A U145A,≤ -4.2
22,A12C C54U A91U,≤ -4.2
23,G11U G25C C32U G50C A60G C95U,≤ -4.2
